Measurements published in publication PMC5384220, “Highly selective inhibition of histone demethylases by de novo macrocyclic peptides” (Nature Communications, 2017).

T1: KDM3A (human, UniProt Q9Y4C1 1-1321)
T1 sequence (looked up): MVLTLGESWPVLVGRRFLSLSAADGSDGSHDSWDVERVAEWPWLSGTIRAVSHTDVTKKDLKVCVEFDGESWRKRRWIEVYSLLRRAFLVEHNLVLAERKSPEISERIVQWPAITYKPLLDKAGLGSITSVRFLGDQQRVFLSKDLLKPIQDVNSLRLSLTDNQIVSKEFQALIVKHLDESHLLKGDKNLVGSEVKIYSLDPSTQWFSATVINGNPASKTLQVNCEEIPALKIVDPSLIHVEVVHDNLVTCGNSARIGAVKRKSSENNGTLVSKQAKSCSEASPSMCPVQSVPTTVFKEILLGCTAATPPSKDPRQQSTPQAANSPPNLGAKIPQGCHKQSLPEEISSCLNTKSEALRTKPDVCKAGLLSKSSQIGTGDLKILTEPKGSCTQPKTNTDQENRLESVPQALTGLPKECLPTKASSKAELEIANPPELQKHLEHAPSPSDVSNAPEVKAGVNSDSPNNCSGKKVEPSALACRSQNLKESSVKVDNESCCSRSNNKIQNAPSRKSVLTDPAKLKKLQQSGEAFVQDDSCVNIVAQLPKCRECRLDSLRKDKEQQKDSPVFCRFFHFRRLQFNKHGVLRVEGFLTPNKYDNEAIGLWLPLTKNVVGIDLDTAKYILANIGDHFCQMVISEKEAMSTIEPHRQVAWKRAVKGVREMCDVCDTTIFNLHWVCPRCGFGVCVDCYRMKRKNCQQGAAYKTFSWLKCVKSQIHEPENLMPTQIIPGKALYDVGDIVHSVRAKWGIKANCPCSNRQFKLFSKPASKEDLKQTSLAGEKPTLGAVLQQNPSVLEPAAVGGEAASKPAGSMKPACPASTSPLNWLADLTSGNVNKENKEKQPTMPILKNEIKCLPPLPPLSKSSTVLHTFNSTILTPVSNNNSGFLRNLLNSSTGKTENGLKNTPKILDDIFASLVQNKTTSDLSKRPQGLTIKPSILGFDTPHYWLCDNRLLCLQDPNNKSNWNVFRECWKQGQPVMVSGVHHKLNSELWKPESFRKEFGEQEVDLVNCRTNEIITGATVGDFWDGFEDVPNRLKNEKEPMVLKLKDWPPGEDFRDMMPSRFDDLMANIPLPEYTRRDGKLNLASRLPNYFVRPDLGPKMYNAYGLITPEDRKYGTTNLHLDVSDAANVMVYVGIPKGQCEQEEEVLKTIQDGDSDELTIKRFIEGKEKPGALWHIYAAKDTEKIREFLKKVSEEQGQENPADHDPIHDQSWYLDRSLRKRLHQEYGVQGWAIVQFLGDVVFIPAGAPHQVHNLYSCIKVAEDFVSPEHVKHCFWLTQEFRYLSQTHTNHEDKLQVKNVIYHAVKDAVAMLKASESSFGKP

T2: KDM2A (human, UniProt Q9Y2K7 1-1162)
T2 sequence (looked up): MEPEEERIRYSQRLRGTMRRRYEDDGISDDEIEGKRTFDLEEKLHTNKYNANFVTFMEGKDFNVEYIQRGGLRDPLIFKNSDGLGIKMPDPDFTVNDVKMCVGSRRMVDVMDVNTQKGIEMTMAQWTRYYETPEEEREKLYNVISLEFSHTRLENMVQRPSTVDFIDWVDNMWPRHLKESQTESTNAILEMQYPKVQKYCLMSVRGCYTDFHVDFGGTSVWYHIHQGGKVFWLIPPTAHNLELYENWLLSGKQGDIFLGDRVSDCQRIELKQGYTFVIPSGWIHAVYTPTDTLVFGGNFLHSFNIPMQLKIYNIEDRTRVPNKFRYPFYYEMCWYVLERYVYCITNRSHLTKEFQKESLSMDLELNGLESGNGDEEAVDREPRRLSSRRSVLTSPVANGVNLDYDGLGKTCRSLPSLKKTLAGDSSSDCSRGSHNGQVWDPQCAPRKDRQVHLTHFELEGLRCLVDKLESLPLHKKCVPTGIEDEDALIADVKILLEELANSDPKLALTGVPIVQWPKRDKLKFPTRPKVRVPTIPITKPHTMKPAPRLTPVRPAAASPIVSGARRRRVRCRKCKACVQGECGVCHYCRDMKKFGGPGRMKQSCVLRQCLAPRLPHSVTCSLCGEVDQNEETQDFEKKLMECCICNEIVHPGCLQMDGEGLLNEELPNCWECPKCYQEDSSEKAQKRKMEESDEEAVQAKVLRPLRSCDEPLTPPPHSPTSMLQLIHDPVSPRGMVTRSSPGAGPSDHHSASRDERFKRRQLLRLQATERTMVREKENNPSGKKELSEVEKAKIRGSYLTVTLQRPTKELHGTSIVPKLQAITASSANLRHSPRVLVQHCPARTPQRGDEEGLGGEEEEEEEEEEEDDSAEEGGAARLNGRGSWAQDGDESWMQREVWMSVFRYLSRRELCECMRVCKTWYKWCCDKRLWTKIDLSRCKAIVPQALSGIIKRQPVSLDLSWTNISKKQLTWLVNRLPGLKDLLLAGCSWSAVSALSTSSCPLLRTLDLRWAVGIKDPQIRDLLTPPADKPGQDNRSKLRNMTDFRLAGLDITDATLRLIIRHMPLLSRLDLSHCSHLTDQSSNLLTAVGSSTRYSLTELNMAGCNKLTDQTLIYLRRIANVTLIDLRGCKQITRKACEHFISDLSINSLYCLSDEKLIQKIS

T3: KDM4D (human, UniProt Q6B0I6 1-523)
T3 sequence (looked up): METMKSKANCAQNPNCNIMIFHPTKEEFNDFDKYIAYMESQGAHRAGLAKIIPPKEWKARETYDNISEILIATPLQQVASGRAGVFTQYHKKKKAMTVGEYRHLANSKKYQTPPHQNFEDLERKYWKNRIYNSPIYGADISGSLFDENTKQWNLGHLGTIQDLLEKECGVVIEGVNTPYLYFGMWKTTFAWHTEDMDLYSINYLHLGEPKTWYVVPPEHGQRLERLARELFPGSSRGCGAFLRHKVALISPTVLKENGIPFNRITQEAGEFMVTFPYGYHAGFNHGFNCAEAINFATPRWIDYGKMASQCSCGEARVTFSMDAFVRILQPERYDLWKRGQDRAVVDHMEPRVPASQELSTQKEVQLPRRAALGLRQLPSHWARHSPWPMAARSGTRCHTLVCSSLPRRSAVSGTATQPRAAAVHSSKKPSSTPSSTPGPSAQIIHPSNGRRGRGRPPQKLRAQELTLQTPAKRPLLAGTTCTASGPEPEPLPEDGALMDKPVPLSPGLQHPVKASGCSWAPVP

T4: His-KDM4A_(1–359)-Bio (human, UniProt O75164 1-359, biotin on the AviTag (>95% biotinylation))
T4 construct: KDM4A, residues 1-359, cloned into pNIC-Bio3; also called His-KDM4A-Bio; His-KDM4A with biotin; not shown: AviTag, C-terminal, kept
T4 sequence (looked up): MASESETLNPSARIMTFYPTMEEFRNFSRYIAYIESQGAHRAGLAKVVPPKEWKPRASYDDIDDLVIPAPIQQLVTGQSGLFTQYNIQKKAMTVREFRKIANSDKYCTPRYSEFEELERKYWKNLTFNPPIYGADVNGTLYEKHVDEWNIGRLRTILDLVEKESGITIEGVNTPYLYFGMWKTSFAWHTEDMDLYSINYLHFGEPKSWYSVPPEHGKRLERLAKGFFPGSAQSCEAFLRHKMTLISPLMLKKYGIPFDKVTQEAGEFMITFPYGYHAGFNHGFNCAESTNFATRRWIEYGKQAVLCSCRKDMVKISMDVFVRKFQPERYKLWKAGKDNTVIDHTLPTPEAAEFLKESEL


Columns and labels:
[1] = target: KDM5C (human, UniProt P41229 1-1560); assay: cell-based or functional assay
KDM5C, sequence (P41229 whole entry): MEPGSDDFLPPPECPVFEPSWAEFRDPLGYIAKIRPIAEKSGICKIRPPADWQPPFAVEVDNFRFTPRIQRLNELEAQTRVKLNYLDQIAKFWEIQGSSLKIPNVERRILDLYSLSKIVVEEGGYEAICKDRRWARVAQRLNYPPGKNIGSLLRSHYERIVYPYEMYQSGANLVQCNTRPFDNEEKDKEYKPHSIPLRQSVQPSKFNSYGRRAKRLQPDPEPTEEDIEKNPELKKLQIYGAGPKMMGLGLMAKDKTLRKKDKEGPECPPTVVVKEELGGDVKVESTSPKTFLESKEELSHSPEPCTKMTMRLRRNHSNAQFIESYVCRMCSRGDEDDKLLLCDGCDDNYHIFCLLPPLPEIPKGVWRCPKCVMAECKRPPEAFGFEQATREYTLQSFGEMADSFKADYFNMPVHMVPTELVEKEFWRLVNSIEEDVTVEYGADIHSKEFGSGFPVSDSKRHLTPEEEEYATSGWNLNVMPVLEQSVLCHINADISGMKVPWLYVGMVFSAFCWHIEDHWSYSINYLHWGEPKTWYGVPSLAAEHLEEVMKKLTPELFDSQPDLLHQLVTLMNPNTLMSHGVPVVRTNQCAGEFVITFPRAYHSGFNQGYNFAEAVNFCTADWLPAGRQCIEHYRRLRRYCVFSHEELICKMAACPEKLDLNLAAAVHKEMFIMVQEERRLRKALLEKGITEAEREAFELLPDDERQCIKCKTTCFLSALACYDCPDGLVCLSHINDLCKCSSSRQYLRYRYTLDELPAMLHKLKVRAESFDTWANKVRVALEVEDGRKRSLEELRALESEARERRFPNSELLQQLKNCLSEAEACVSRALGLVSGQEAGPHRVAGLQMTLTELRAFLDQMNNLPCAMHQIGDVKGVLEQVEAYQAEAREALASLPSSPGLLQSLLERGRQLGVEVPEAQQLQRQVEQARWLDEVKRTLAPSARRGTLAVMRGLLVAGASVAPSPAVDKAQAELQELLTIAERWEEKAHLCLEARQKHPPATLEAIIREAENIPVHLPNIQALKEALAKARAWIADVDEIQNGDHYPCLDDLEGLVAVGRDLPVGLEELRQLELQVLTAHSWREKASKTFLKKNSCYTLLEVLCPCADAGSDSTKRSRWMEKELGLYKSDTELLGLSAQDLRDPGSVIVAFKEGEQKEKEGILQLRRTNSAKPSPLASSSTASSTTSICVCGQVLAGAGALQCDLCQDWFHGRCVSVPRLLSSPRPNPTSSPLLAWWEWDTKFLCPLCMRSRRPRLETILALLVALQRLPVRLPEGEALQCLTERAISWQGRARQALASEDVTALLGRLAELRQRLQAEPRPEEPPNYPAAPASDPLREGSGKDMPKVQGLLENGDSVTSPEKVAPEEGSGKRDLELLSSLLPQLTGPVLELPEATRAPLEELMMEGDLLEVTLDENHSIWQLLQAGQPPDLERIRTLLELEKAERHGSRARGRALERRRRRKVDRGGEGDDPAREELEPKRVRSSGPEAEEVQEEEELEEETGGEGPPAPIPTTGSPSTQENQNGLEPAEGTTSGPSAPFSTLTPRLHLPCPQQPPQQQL

[2] = target: T1, KDM3A; assay: cell-based or functional assay
[3] = target: KDM6B (human, UniProt O15054 1-1643); assay: cell-based or functional assay
KDM6B, sequence (O15054 whole entry): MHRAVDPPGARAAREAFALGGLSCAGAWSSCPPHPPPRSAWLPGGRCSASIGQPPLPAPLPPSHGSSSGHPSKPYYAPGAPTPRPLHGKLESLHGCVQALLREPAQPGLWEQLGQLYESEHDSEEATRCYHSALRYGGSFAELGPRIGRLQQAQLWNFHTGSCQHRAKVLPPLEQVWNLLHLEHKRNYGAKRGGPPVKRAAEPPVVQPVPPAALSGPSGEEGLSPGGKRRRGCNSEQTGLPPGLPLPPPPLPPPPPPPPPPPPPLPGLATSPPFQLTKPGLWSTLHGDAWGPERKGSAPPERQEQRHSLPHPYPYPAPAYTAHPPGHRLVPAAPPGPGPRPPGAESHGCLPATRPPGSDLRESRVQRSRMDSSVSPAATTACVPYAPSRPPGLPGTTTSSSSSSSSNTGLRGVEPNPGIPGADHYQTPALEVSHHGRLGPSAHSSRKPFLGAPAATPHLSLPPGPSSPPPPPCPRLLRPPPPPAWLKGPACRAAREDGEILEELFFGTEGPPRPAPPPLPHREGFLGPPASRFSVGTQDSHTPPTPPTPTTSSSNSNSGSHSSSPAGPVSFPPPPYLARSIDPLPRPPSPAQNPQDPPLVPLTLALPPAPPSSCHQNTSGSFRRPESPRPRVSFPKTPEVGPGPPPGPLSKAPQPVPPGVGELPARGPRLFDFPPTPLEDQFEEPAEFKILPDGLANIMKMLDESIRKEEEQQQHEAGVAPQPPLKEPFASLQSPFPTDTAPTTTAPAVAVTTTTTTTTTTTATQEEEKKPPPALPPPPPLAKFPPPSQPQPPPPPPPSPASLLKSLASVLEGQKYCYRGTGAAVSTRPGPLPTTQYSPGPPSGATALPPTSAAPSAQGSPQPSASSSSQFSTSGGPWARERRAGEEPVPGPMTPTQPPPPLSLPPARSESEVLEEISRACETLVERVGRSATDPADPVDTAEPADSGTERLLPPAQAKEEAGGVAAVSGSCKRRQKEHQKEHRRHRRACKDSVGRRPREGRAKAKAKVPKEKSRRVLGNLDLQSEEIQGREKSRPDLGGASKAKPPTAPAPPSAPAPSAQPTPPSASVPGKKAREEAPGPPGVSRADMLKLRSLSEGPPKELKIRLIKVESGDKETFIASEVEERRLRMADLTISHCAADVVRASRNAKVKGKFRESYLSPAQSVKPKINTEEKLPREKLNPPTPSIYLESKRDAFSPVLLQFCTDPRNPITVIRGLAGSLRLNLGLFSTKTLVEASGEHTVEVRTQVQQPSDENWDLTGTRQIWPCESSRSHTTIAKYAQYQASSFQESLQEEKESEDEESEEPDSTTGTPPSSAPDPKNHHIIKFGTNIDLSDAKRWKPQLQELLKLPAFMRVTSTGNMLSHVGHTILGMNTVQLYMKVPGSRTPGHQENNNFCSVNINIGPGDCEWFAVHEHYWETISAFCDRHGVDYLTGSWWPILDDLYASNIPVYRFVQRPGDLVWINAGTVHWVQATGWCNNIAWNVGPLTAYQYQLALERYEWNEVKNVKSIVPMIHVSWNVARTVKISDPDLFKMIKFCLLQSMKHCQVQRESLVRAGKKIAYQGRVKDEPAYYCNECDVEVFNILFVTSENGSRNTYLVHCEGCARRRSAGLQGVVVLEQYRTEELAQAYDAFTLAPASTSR

[4] = target: T2, KDM2A; assay: cell-based or functional assay
[5] = target: factor inhibiting HIF (UniProt Q9NWT6 1-349); assay: cell-based or functional assay
factor inhibiting HIF, sequence (Q9NWT6 whole entry): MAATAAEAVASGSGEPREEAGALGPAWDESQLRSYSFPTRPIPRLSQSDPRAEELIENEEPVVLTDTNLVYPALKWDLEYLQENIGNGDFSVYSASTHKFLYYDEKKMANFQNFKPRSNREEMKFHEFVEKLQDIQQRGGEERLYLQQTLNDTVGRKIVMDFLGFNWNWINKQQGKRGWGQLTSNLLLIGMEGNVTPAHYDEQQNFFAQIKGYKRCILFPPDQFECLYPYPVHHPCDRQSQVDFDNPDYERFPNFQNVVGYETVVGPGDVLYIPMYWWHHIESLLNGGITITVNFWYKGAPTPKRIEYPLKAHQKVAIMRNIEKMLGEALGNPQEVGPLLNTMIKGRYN

[6] = target: KDM1A (human, UniProt O60341 1-852); assay: cell-based or functional assay
[7] = target: T3, KDM4D; assay: cell-based or functional assay
[8] = target: prolyl hydroxylase domain 2 (UniProt Q9GZT9 1-426); assay: cell-based or functional assay
prolyl hydroxylase domain 2, sequence (Q9GZT9 whole entry, the tested form may be a part): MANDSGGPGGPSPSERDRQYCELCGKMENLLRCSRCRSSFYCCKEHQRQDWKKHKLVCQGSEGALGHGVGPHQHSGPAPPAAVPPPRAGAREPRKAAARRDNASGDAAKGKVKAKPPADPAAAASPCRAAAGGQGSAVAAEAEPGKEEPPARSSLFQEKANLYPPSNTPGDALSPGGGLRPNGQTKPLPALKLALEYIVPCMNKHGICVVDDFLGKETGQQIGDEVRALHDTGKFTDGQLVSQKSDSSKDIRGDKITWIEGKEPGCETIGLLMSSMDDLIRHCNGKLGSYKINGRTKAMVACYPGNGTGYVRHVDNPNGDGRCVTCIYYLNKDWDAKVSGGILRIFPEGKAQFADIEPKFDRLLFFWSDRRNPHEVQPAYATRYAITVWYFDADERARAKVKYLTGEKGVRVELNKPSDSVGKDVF

[9] = target: T4, His-KDM4A_(1–359)-Bio; assay: BLI; His-KDM4A(1–359)-Bio (70 nM) immobilised on super streptavidin biosensor, peptides at different concentrations in solution; OctetRed 384; 50 mM HEPES pH 7.5, 150 mM NaCl, 10 μM ammonium iron(II) sulphate; details: both partners purified

Row | Binder | IC50 of inhibition of demethylase activity (AlphaScreen activity assay) [1] | IC50 of inhibition of demethylase activity (AlphaScreen activity assay) [2] | IC50 of inhibition of demethylase activity (AlphaScreen activity assay) [3] | IC50 of inhibition of demethylase activity (AlphaScreen activity assay) [4] | IC50 of inhibition of FIH (MALDI–TOF MS assay) [5] | IC50 of inhibition of KDM1A/LSD1 (fluorescence-based assay) [6] | IC50 of inhibition of demethylase activity (AlphaScreen activity assay) [7] | IC50 of inhibition of PHD2 (MALDI–TOF MS assay) [8] | fold weaker Kd than the cyclic peptides CP2, CP4 and CP5 [9]
1 | YSKYTQSGVRWVC (not fully specified; N-terminal L-Tyr (^LTyr library, N-chloroacetyl-L-Tyr) cyclised by a thioether to a downstream cysteine) [CP5] | > 10 µM | > 10 µM | > 10 µM | > 10 µM | > 1000 µM | > 10 µM | > 10 µM | > 1000 µM | –
2 | ARTKQTARKSTGGKA (peptide, UniProt P68431 2-16, looked up, trimethyl-lysine at 9, histone H3, residues 1-15, Lys9 trimethylated; The H3K9me3 substrate of the formaldehyde dehydrogenase coupled assay is not described further; this molecule is used for it; also called histone H3K9 peptide; H3K9me3) [H3(1–15)K9me3] | – | – | – | – | – | – | – | – | > 1000 fold
